Laboratory results reported in patent US20250011424A1 (SALVARX, published 2025).

What was measured:
[1] = target: T1, V-C1-C2 construct of human RAGE (human, UniProt Q15109 23-404); experiment: binding to cells expressing RAGE domain constructs fused to eGFP
T1 construct: also called ABC construct; not shown: eGFP of the vector pEGFP-N2, fused in frame at the C-terminus
From the text: The extracellular portion of the RAGE protein contains three domains with similarities to the IgG family. The three domains are V, C1, and C2 (variable, constant 1, and constant 2, respectively). RS07 binds the V domain while RS15 binds an integrated V-C1 domain (FIG. 2B). RAGE constructs used in the present exemplary embodiment include a V-C1-C2 construct starting at amino acid 23 of SEQ ID NO:1 (AQNITA . . . ), immediately following the native signal sequence. The C1-C2 construct starts at amino acid 117 of SEQ ID NO:1 (VYQIPG . . . ), and the C2 construct starts at amino acid 249 of SEQ ID NO:1 (VAPGG . . . ). Domains were predicted on Genbank and by crystal structure. To map antibody binding to individual RAGE domains, the IL2 signal sequence was cloned into pEGFP-N2, into which portions of RAGE were cloned in-frame with IL2 signal sequence (IL2ss) at the 5′ end and in-frame with eGFP at the 3′ end. In addition to the extracellular portions of RAGE, all constructs contain the RAGE transmembrane and C-terminal regions, so the GFP signal should be intracellular, while the IL2ss ensures the RAGE V, C1, and/or C2 motifs are extracellular, and accessible to antibodies. The ABC construct in FIG. 2B includes the V, C1, and C2 domains, and initiates at aa 23 of SEQ ID NO: 1. The BC construct in FIG. 2B includes the C1 and C2 domains, and initiates at aa 116 of SEQ ID NO: 1. […]

[2] = target: T2, Human RAGE (human, UniProt Q15109 23-404); experiment: flow cytometry on human colorectal cancer samples
T2 construct: also called receptor for advanced glycation end products; AGER
T2 sequence (Q15109 23-404): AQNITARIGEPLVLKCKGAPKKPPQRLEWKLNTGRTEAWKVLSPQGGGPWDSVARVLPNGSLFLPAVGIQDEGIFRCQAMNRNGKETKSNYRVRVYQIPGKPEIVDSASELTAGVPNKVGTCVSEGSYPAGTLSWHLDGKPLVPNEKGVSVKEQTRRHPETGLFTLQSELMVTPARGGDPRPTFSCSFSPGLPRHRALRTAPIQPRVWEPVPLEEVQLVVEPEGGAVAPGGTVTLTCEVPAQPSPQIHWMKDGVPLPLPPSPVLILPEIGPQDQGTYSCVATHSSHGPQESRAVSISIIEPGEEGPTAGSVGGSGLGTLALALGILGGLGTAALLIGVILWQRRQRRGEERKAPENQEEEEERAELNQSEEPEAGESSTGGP

T1 sequence (Q15109 23-404): as above

B1: RS15 (antibody, V domains shown)
VH: QVQLQQSGAELVRPGTSLKVSCKASGYAFTNYLIEWVNQRPGQGLEWIGVINPGSGGTHYNEKFKGKATLTADKSSSTAYMQLSSLTSDDSAIYFCARSRAVRAMDYWGQGTSVTV
VL: DIVMTQSQKFMSTSVGDRVSVTCKASQNVGTNVAWYQQKPGQSPKSLIYSASYRYSGVPDRFTGSGSGTDFTLTISNVQSEDLAEYFCQQYNSYFFTFGAGTKLELKR
notes: Mouse monoclonal IgG from a hybridoma (BALB/c immunised with human RAGE extracellular domain); also called RFT01; anti-RAGE (RS15)
binding result [1]: binds | binding result [2]: binds
